{
  "source": "patent US20230212279A1",
  "about": "“TREATMENT AND PREVENTION OF DISEASE CAUSED BY TYPE IV COLLAGEN DYSFUNCTION” (Singapore Health Services PTE, LTD., priority 2020, published 2023)",
  "molecules": {"B1": {"name": "X203: mouse anti-mouse IL-11 IgG, neutralizing IL11 antibody; VH SEQ ID NO:22, VL SEQ ID NO:23 (antibody, V domains shown)", "VH": "EVQLQQSGPELVKPGASVKIPCKASGYTFTDYNMDWVKQSHGKSLEWIGDINPHNGGPIYNQKFTGKATLTVDKSSSTAYMELRSLTSEDTAVYYCARGELGHWYFDVWGTGTTVTVSS", "VL": "DIVLTQSPASLAVSLGQRATISCRASKSVSTSGYSYIHWYQQKPGQPPKLLIYLASNLDSGVPARFSGSGSGTDFTLNIHPVEEEDAATYYCQHSRDLPPTFGGGTKLEIK"}, "B2": {"name": "IL-11: pleiotropic cytokine, member of the IL-6 family of cytokines (protein)", "chain": "PGPPAGSPRVSSDPRADLDSAVLLTRSLLADTRQLAAQMRDKFPADGDHSLDSLPTLAMSAGTLGSLQLPGVLTRLRVDLMSYLRHVQWLRRAGGPSLKTLEPELGALQARLERLLRRLQLLMSRLALPQAAPDQPVIPLGPPASAWGSIRAAHAILGGLHLTLDWAVRGLLLLKTRL"}},
  "key": {"[1]": {"test_system": "mice homozygous for the Col4a3tm1Dec mutation", "assay": "Survival in mouse model of Alport syndrome (Example 1)", "assay_type": "in vivo", "conditions": "20 mg/kg intraperitoneal, biweekly, from 6 weeks of age until mortality", "excerpt": "129-Col4a3^tm1Dec/J mice were obtained from The Jackson Laboratory (Stock No:002908; COL4A3 KO). The mice comprise the Co/4a3^tm1Dec mutation described e.g. in Cosgrove et al., Genes Dev. (1996) 10:2981-2992, which is hereby incorporated by reference in its entirety. 129-Col4a3^tm1Dec/J mice comprise a targeted mutation to Col4a3, resulting in progressive glomerulonephritis with microhematuria and proteinuria, and mice homozygous for the mutation typically die at about 8.5 weeks.\nFrom 6 weeks of age, mice homozygous for the Co/4a3^tm1Dec mutation were administered biweekly by intraperitoneal injection of 20 mg/kg of Enx203, or an isotype-matched control antibody, until mortality."}, "[2]": {"test_system": "Col4a3-/- mice", "assay": "Lifespan study in Col4a3-/- mice (Example 2)", "assay_type": "in vivo, mouse", "conditions": "20 mg/kg 2x/week from 6 weeks of age until death", "experimental": "(§1) Col4a3^−/− (Col4a3^tm1Dec) mice were purchased from The Jackson Laboratory (https://www.jax.org/strain/002908). Mice were housed in temperatures of 21-24° C. with 40-70% humidity on a 12 h light/12 h dark cycle and provided with food and water ad libitum. For treatment study, Col4a3^−/− were administered 20 mg/kg of anti-IL11 (X203) or IgG isotype control (11E10) by intraperitoneal (IP) injection starting from 6 weeks of age twice a week for 2.5 weeks; wild-type littermates were used as controls. Mice were sacrificed for blood and kidney collection when they were 8.5-week-old. For lifespan study, IgG/X203 was administered to 6-week-old Col4a3^−/− (2×/week) until death ensued.\nStatistical analyses were performed using GraphPad Prism software (version 8). Statistical significance between control and experimental groups were analysed by twosided Student's t tests or by one-way ANOVA as indicated in the figure legends. P values were corrected for multiple testing according to Tukey when several conditions were compared to each other within one experiment. Comparison analysis for two parameters from two different groups were performed by two-way ANOVA. Survival curves were analyzed by Gehan-Breslow-Wilcoxon test. The criterion for statistical significance was P<0.05."}, "[3]": {"test_system": "Col4a3-/- mice", "assay": "Treatment study in Col4a3-/- mice: body weight and kidney weight", "assay_type": "in vivo, mouse", "experimental": "as §1"}, "[4]": {"test_system": "kidneys of Col4a3-/- mice", "assay": "Treatment study: kidney fibrosis (renal collagen content, Masson's Trichrome staining)", "assay_type": "in vivo, mouse", "conditions": "20 mg/kg IP 2x/week from 6 weeks for 2.5 weeks; vs IgG", "experimental": "as §1\nKidney tissues were fixed for 48 hours at RT in 10% neutral-buffered formalin (NBF), dehydrated, embedded in paraffin, and sectioned at 7 μm. Transverse kidney sections were then stained with Masson's Trichrome according to standard protocol. Images of the sections were captured by light microscopy and blue-stained fibrotic areas were semi-quantitatively determined with Image-J software (color deconvolution-Masson Trichrome) from the whole kidney area (100× field, n=4 kidneys/group). Treatment and genotypes were not disclosed to investigators performing the histology and generating semi-quantitative readouts."}, "[5]": {"test_system": "kidneys of Col4a3-/- mice", "assay": "Treatment study: renal mRNA expression by qPCR", "assay_type": "in vivo, mouse", "conditions": "20 mg/kg IP 2x/week from 6 weeks for 2.5 weeks", "experimental": "as §1\nTotal RNA was extracted from snap-frozen kidney tissues using Trizol (Invitrogen) followed by RNeasy column (Qiagen) purification. cDNAs were synthesized with iScript™ cDNA synthesis kit (Bio-Rad) according to manufacturer's instructions. Gene expression analysis was performed on duplicate samples with either TaqMan (Applied Biosystems) or fast SYBR green (Qiagen) technology using StepOnePlus™ (Applied Biosystem) over 40 cycles. Expression data were normalized to GAPDH mRNA expression and fold change was calculated using 2^−ΔΔct method. The sequences of specific TaqMan probes and SYBR green primers are available upon request."}, "[6]": {"test_system": "kidneys of Col4a3-/- mice", "assay": "Treatment study: Western blot of kidney protein extracts", "assay_type": "in vivo, mouse", "conditions": "20 mg/kg IP 2x/week from 6 weeks for 2.5 weeks; vs IgG", "experimental": "as §1\nWestern blot was carried out on total protein extracts from mouse kidney tissues. Kidneys were lysed in radioimmunoprecipitation assay (RIPA) buffer containing protease and phosphatase inhibitors (Thermo Scientifics), followed by centrifugation to clear the lysate. Protein concentrations were determined by Bradford assay (Bio-Rad). Protein lysates were separated by SDS-PAGE, transferred to PVDF membrane, and subjected to immunoblot analysis for various antibodies as outlined in the main text, figures, or and/or figure legends. Proteins were visualized using the ECL detection system (Pierce) with the appropriate secondary antibodies: anti-rabbit HRP or antimouse HRP."}, "[7]": {"test_system": "kidneys of Col4a3-/- mice", "assay": "Treatment study: Wilms' Tumor 1 immunohistochemistry (podocytes)", "assay_type": "in vivo, mouse", "conditions": "20 mg/kg IP 2x/week from 6 weeks for 2.5 weeks, vs IgG", "experimental": "as §1\nKidneys were fixed in 10% neutral-buffered formalin (NBF), paraffinized, cut into 7 μm sections, incubated with primary antibodies overnight and visualized using an ImmPRESS HRP anti-rabbit IgG polymer detection kit (MP-7401, Vector Laboratories) with ImmPACT DAB Peroxidase Substrate (SK-4105, Vector Laboratories). Quantification of WT^+ve cells were performed in a blinded fashion from 4 images (200× field)/kidney (n=3-4 kidneys/group)."}, "[8]": {"test_system": "Col4a3-/- mice", "assay": "Treatment study: renal function by colorimetric assays (BUN, creatinine, urinary albumin:creatinine)", "assay_type": "in vivo, mouse", "conditions": "20 mg/kg 2x/week from week 6; study end 8.5 weeks of age; vs IgG", "experimental": "as §1\nThe levels of blood urea nitrogen (BUN) and creatinine in mouse serum were measured using Urea Assay Kit (ab83362, Abcam) and Creatinine Assay Kit (ab65340, Abcam), respectively. Urine albumin and creatinine levels were measured using Mouse Albumin ELISA kit (ab108792, Abcam) and Creatinine Assay Kit (ab204537, Abcam), respectively. All ELISA and colorimetric assays were performed according to the manufacturer's protocol."}, "[9]": {"biological_target": "T1, IL-11Rα (Homo sapiens, UniProt Q14626)", "T1 sequence (Q14626 23-422)": "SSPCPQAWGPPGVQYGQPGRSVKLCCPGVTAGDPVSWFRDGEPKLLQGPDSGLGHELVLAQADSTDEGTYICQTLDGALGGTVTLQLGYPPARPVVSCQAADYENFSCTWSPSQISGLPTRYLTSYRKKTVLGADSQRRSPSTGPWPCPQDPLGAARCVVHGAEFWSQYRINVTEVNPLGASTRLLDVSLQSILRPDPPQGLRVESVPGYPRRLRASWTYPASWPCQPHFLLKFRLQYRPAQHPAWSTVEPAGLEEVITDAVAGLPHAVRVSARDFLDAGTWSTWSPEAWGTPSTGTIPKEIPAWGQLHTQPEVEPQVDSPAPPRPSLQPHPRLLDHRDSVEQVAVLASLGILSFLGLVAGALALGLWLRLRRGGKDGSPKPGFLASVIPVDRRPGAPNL", "conditions": "IL-11 binding to IL-11Rα alone, low affinity; cited from earlier work"}},
  "note": "Entries after “also recorded” stand apart in the source; their conditions may differ.",
  "data": [
    {"molecule": "B1", "values": [
      {"measurement": "increase in survival relative to mice treated with isotype-matched control antibody", "setting": "[1]", "value": "up to 40%"},
      {"measurement": "median lifespan", "setting": "[2]; IgG control 62.5 days, P=0.0015", "value": 88.5, "unit": "days"},
      {"measurement": "extension of median life span", "setting": "[2]; vs IgG control", "value": 41.6, "unit": "%"},
      {"measurement": "kidney mass", "setting": "[3]; 20 mg/kg IP 2x/week from 6 weeks for 2.5 weeks, vs IgG", "value": "preserved"},
      {"measurement": "total body weight loss, as percentage of starting body weight", "setting": "[3]; 20 mg/kg IP 2x/week from 6 weeks of age for 2.5 weeks, end of study, IgG control 30%, P=0.0003", "value": 17, "unit": "%"},
      {"measurement": "kidney fibrosis by biochemical and histological assessments", "setting": "[4]", "value": "significantly less"},
      {"measurement": "CC chemokine CcI2 mRNA", "setting": "[5]; vs IgG", "value": "diminished"},
      {"measurement": "CC chemokine CcI5 mRNA", "setting": "[5]; vs IgG", "value": "diminished"},
      {"measurement": "Tnfα expression", "setting": "[5]; vs IgG", "value": "reduced"},
      {"measurement": "proinflammatory interleukin II1b mRNA", "setting": "[5]; vs IgG", "value": "diminished"},
      {"measurement": "proinflammatory interleukin II6 mRNA", "setting": "[5]; vs IgG", "value": "diminished"},
      {"measurement": "renal level of Col1a1 gene expression", "setting": "[5]; vs IgG", "value": "reduced"},
      {"measurement": "renal level of Col1a2 gene expression", "setting": "[5]; vs IgG", "value": "reduced"},
      {"measurement": "renal level of Col3a1 gene expression", "setting": "[5]; vs IgG", "value": "reduced"},
      {"measurement": "renal level of Fn gene expression", "setting": "[5]; vs IgG", "value": "reduced"},
      {"measurement": "renal level of II11 gene expression", "setting": "[5]; vs IgG", "value": "reduced"},
      {"measurement": "renal level of Tgfb1 gene expression", "setting": "[5]; vs IgG", "value": "reduced"},
      {"measurement": "renal level of myofibroblast marker Acta2 gene expression", "setting": "[5]; vs IgG", "value": "reduced"},
      {"measurement": "tubule damage indicator Kim1 mRNA", "setting": "[5]; vs IgG and wild-type", "value": "restored"},
      {"measurement": "tubule damage indicator Ngal mRNA", "setting": "[5]; vs IgG and wild-type", "value": "restored"},
      {"measurement": "Caspase 3 activation", "setting": "[6]", "value": "reduced"},
      {"measurement": "ERK phosphorylation in kidneys", "setting": "[6]", "value": "largely diminished"},
      {"measurement": "Podocin protein level (immunoblotting)", "setting": "[6]", "value": "restored towards normal"},
      {"measurement": "STAT3 phosphorylation in kidneys", "setting": "[6]", "value": "largely diminished"},
      {"measurement": "Wilms' Tumor 1 protein level (immunoblotting)", "setting": "[6]", "value": "restored towards normal; also recorded: Preservation of podocytes"},
      {"measurement": "alpha-smooth muscle actin (αSMA) protein level (reduction seen on transcript)", "setting": "[6]", "value": "confirmed at the protein level"},
      {"measurement": "degree of TGFβ upregulation in the kidneys", "setting": "[6]", "value": "significantly reduced"},
      {"measurement": "fibronectin protein level (reduction seen on transcript)", "setting": "[6]", "value": "confirmed at the protein level"},
      {"measurement": "Wilms' Tumor 1 (WT1) staining", "setting": "[7]", "value": "greater staining"},
      {"measurement": "number of WT1-positive cells (podocytes)", "setting": "[7]; blinded quantification", "value": "restored towards normal; also recorded: significant (P=0.0002) restoration"},
      {"measurement": "serum blood urea nitrogen (BUN)", "setting": "[8]", "value": "markedly lowered"},
      {"measurement": "serum creatinine (Cr)", "setting": "[8]", "value": "markedly lowered"},
      {"measurement": "urinary albumin:creatinine ratio (ACR)", "setting": "[8]", "value": "markedly lowered"}
    ]},
    {"molecule": "B2", "values": [
      {"measurement": "Kd", "setting": "[9]", "value": "~0.022", "unit": "µM"}
    ]}
  ]
}
